± gives the uncertainty stated by the source.
Assay: protein stability index of a GFP-peptide fusion (yeast GPS) (PSI 1-4); higher = more stable; sorted into four equal gates, so the index is relative within each strain
Outline: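 Tiled 17-residue peptides from yeast proteins were fused downstream of GFP on a plasmid that also expresses Cherry, and the pooled library was carried in yeast. Mid-log cultures grown in leucine-free medium were sorted into four equal gates by GFP/Cherry fluorescence ratio. Plasmids from each gate were PCR-amplified and Illumina-sequenced, and reads were assigned to strains by barcodes. Each peptide's protein stability index is the sum, over gates, of the gate's read frequency multiplied by its gate number.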

SLVKYPELLDSLAILGM [SWI1]
protein stability index (doa10∆): 1.89 ± 0.06 | protein stability index (pdr5∆): 2.31 ± 0.054 | protein stability index (san1∆): 1.99 ± 0.075 | protein stability index (ubr1∆): 2.16 ± 0.051

DLIKFSAETLSELIRTT [FAS1]
protein stability index (doa10∆): 2.1 ± 0.076 | protein stability index (pdr5∆): 2.29 ± 0.059 | protein stability index (san1∆): 2.1 ± 0.081 | protein stability index (ubr1∆): 2.12 ± 0.073

IAMPKRRMAFKPFGSAK [YLR335W/NUP2]
protein stability index (doa10∆): 2.86 ± 0.052 | protein stability index (pdr5∆): 3.09 ± 0.064 | protein stability index (san1∆): 3.11 ± 0.043 | protein stability index (ubr1∆): 2.73 ± 0.044

MRDKSFGRTLASVTKEI [RPL12A]
protein stability index (doa10∆): 3.25 ± 0.1 | protein stability index (pdr5∆): 3.08 ± 0.12 | protein stability index (san1∆): 2.87 ± 0.13 | protein stability index (ubr1∆): 2.81 ± 0.18

FNTPFANTGGQDKIELS [SNF2]
protein stability index (doa10∆): 1.89 ± 0.18 | protein stability index (san1∆): 1.55 ± 0.2 | protein stability index (ubr1∆): 1.87 ± 0.2

GSDEAYVKDARKDTVSR [RPC40]
protein stability index (doa10∆): 3.23 ± 0.11 | protein stability index (pdr5∆): 3.17 ± 0.12 | protein stability index (san1∆): 3.13 ± 0.061 | protein stability index (ubr1∆): 3.35 ± 0.13

MLLVDIIPSRMGEAQTG [REC8]
protein stability index (doa10∆): 1.7 ± 0.063 | protein stability index (pdr5∆): 1.87 ± 0.073 | protein stability index (san1∆): 2.02 ± 0.09 | protein stability index (ubr1∆): 2.17 ± 0.061

PFKGEVVDGTVVSCSQH [RPB7]
protein stability index (doa10∆): 3.04 ± 0.14 | protein stability index (pdr5∆): 3.08 ± 0.1 | protein stability index (san1∆): 2.92 ± 0.088 | protein stability index (ubr1∆): 2.56 ± 0.12

MDALTLMKCCHEAYSII [RRP45]
protein stability index (doa10∆): 1.77 ± 0.063 | protein stability index (pdr5∆): 2.04 ± 0.071 | protein stability index (san1∆): 1.84 ± 0.099 | protein stability index (ubr1∆): 1.76 ± 0.12

IYSSDAQGDPNLEPLIA [NUT1]
protein stability index (doa10∆): 3.36 ± 0.14 | protein stability index (pdr5∆): 3.12 ± 0.096 | protein stability index (san1∆): 3.04 ± 0.065 | protein stability index (ubr1∆): 3.35 ± 0.1

LGRLNKLRKIAISKKNK [LIN1]
protein stability index (doa10∆): 2 ± 0.083 | protein stability index (pdr5∆): 1.74 ± 0.096 | protein stability index (san1∆): 1.39 ± 0.23 | protein stability index (ubr1∆): 1.47 ± 0.072

FISELCSIEPIAAKLIN [YML103C/NUP188]
protein stability index (doa10∆): 1.41 ± 0.033 | protein stability index (pdr5∆): 1.34 ± 0.044 | protein stability index (san1∆): 1.44 ± 0.077 | protein stability index (ubr1∆): 1.35 ± 0.045

EKESDDGLLEYLEDIIG [SMC4]
protein stability index (doa10∆): 3.47 ± 0.091 | protein stability index (pdr5∆): 3.31 ± 0.075 | protein stability index (san1∆): 3.15 ± 0.079 | protein stability index (ubr1∆): 3.54 ± 0.1

LPELWALLNFVLPKIFN [SNF2]
protein stability index (doa10∆): 2.38 ± 0.074 | protein stability index (pdr5∆): 1.89 ± 0.062 | protein stability index (san1∆): 2.07 ± 0.098 | protein stability index (ubr1∆): 1.51 ± 0.038

TFIYGYCDKNFRENMSK [PRE3]
protein stability index (doa10∆): 2.12 ± 0.079 | protein stability index (pdr5∆): 2.17 ± 0.066 | protein stability index (san1∆): 2.21 ± 0.092 | protein stability index (ubr1∆): 2.65 ± 0.053

AVEFESVPLRKGDRALL [BRR2]
protein stability index (doa10∆): 3.16 ± 0.29 | protein stability index (pdr5∆): 3.45 ± 0.14 | protein stability index (san1∆): 2.98 ± 0.075 | protein stability index (ubr1∆): 2.87 ± 0.11

PSYYGVRDTSPHGISVF [BRR2]
protein stability index (doa10∆): 1.35 ± 0.069 | protein stability index (pdr5∆): 1.41 ± 0.057 | protein stability index (san1∆): 2.29 ± 0.077 | protein stability index (ubr1∆): 1.94 ± 0.045

FERIMILDPQVTRFTTW [YJL039C/NUP192]
protein stability index (doa10∆): 1.06 ± 0.077 | protein stability index (pdr5∆): 1.33 ± 0.073 | protein stability index (san1∆): 1.22 ± 0.12 | protein stability index (ubr1∆): 1.23 ± 0.062

ENVEKKEAALKTMIKTI [SMC2]
protein stability index (doa10∆): 1.93 ± 0.058 | protein stability index (pdr5∆): 2.29 ± 0.077 | protein stability index (san1∆): 1.73 ± 0.09 | protein stability index (ubr1∆): 2.14 ± 0.039

LIIRCRVVRPKSLDAET [RPO21]
protein stability index (doa10∆): 2.35 ± 0.11 | protein stability index (pdr5∆): 2.52 ± 0.09 | protein stability index (san1∆): 2.22 ± 0.13 | protein stability index (ubr1∆): 2.51 ± 0.19

FNSVKSFDEWFNTPFAN [SNF2]
protein stability index (doa10∆): 2.9 ± 0.091 | protein stability index (pdr5∆): 3.14 ± 0.082 | protein stability index (san1∆): 3.43 ± 0.085 | protein stability index (ubr1∆): 3.26 ± 0.11

YGMSITETFEKPQRTNT [RPB2]
protein stability index (doa10∆): 3.03 ± 0.14 | protein stability index (pdr5∆): 3.35 ± 0.17 | protein stability index (san1∆): 3.04 ± 0.12 | protein stability index (ubr1∆): 3.12 ± 0.11

SSTDFSTCIVSLIRNNL [ECM29]
protein stability index (doa10∆): 2.7 ± 0.066 | protein stability index (pdr5∆): 2.99 ± 0.092 | protein stability index (san1∆): 2.41 ± 0.063 | protein stability index (ubr1∆): 2.88 ± 0.054

RQKKKPTSAQKSAVSHA [IRR1]
protein stability index (doa10∆): 1.34 ± 0.24 | protein stability index (ubr1∆): 1.56 ± 0.15

SNQRFKDLQWLEFARIT [SIN4]
protein stability index (doa10∆): 3.17 ± 0.064 | protein stability index (pdr5∆): 3.13 ± 0.057 | protein stability index (san1∆): 2.74 ± 0.068 | protein stability index (ubr1∆): 3.15 ± 0.073

QGDVEQIAAQSPVELSR [SMC1]
protein stability index (doa10∆): 2.66 ± 0.087 | protein stability index (pdr5∆): 2.92 ± 0.067 | protein stability index (san1∆): 3.08 ± 0.063 | protein stability index (ubr1∆): 2.83 ± 0.073

KSLDSIPMSKTIKDLVG [FAS2]
protein stability index (doa10∆): 3.26 ± 0.12 | protein stability index (pdr5∆): 2.97 ± 0.092 | protein stability index (san1∆): 2.79 ± 0.13 | protein stability index (ubr1∆): 3.16 ± 0.075

LDLMFDEVYVQNSKFLK [YJL039C/NUP192]
protein stability index (doa10∆): 2.94 ± 0.066 | protein stability index (pdr5∆): 2.94 ± 0.055 | protein stability index (san1∆): 2.87 ± 0.071 | protein stability index (ubr1∆): 2.87 ± 0.034

VTSEKYPFDKLESWWLV [BRR2]
protein stability index (doa10∆): 2.42 ± 0.29 | protein stability index (pdr5∆): 2.91 ± 0.19 | protein stability index (san1∆): 2.79 ± 0.12 | protein stability index (ubr1∆): 3.3 ± 0.087

QIKEIKEVIELPVKHPE [RPT6]
protein stability index (doa10∆): 2.98 ± 0.074 | protein stability index (pdr5∆): 3.13 ± 0.088 | protein stability index (san1∆): 3.27 ± 0.078 | protein stability index (ubr1∆): 3.2 ± 0.075

AIMSKSSLEELLLKDQQ [ECM29]
protein stability index (doa10∆): 2.83 ± 0.09 | protein stability index (pdr5∆): 2.93 ± 0.073 | protein stability index (san1∆): 2.83 ± 0.1 | protein stability index (ubr1∆): 2.98 ± 0.05

LEQREQNENLPSDKSDS [SSN2]
protein stability index (doa10∆): 3.16 ± 0.07 | protein stability index (pdr5∆): 3.09 ± 0.071 | protein stability index (san1∆): 3.04 ± 0.057 | protein stability index (ubr1∆): 3.12 ± 0.056

GVFDPASYAKYLIDHIK [RPL22A]
protein stability index (doa10∆): 2.73 ± 0.25 | protein stability index (san1∆): 3.35 ± 0.16

KGVTEKDAVDYSKIPNI [RRP6]
protein stability index (doa10∆): 3.24 ± 0.12 | protein stability index (pdr5∆): 3.18 ± 0.092 | protein stability index (san1∆): 3.25 ± 0.08 | protein stability index (ubr1∆): 3.3 ± 0.069

TFTQLVSSSLYERRFGP [PUP3]
protein stability index (doa10∆): 2.79 ± 0.12 | protein stability index (pdr5∆): 2.94 ± 0.16 | protein stability index (san1∆): 2.73 ± 0.12 | protein stability index (ubr1∆): 2.94 ± 0.092

KLLKEKVKLFHGILDDL [MED2]
protein stability index (doa10∆): 3.1 ± 0.12 | protein stability index (pdr5∆): 2.93 ± 0.13 | protein stability index (san1∆): 3.09 ± 0.06 | protein stability index (ubr1∆): 2.97 ± 0.14

YGTATADDADIEMKDVS [MED1]
protein stability index (doa10∆): 3 ± 0.13 | protein stability index (pdr5∆): 3.17 ± 0.081 | protein stability index (san1∆): 3.01 ± 0.061 | protein stability index (ubr1∆): 3.15 ± 0.071

FEYEGVQDIIGNGKLSE [RPN1]
protein stability index (pdr5∆): 2.85 ± 0.18 | protein stability index (san1∆): 3.21 ± 0.26 | protein stability index (ubr1∆): 2.74 ± 0.1

KIADNISKDENEDQFLE [YDL116W/NUP84]
protein stability index (doa10∆): 2.92 ± 0.14 | protein stability index (pdr5∆): 2.98 ± 0.13 | protein stability index (san1∆): 2.86 ± 0.13 | protein stability index (ubr1∆): 3.33 ± 0.1

YAVKAVENGTTSIGIKC [PRE10]
protein stability index (doa10∆): 2.04 ± 0.11 | protein stability index (pdr5∆): 2.02 ± 0.076 | protein stability index (san1∆): 1.36 ± 0.21 | protein stability index (ubr1∆): 2.77 ± 0.19
